# Source: the supplement of paper PMC9112550, “Optimization of the antimicrobial peptide Bac7 by deep mutational scanning” (BMC Biology, 2022)
# Tested on: Escherichia coli TOP10
# Experiment: shrunken log2 fold change of peptide-encoding DNA abundance (4.5 h post-induction vs induction); higher = less antimicrobial activity (less host growth inhibition)
# Details: time post-induction: 4.5 h; library: site-saturation at positions 5, 18, 19, 20
# 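Further: peptides expressed intracellularly from a pBAD plasmid library in pooled LB shake-flask culture, induced with 0.3% L-arabinose, DNA abundance read by NGS, three biological replicates, DESeq2 with apeglm shrinkage.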
row,Sequence,shrunken log2 fold change
1,RRIRMRPPRLPRPRPRPTCFPRP,0.105
2,RRIRHRPPRLPRPRPRPMFIPRP,-0.0886
3,RRIRHRPPRLPRPRPRPDAEPRP,0.205
4,RRIRERPPRLPRPRPRPLEFPRP,-0.542
5,RRIRLRPPRLPRPRPRPQWWPRP,0.491
6,RRIRLRPPRLPRPRPRPGRVPRP,0.242
7,RRIRYRPPRLPRPRPRPGGNPRP,-0.0562
8,RRIRRRPPRLPRPRPRPWETPRP,0.00928
9,RRIRKRPPRLPRPRPRPVDCPRP,-0.248
10,RRIRLRPPRLPRPRPRPKNMPRP,-0.448
11,RRIRIRPPRLPRPRPRPNASPRP,0.109
12,RRIRFRPPRLPRPRPRPVDYPRP,-0.031
13,RRIRHRPPRLPRPRPRPHRPPRP,-0.133
14,RRIRFRPPRLPRPRPRPRNTPRP,-0.279
15,RRIRRRPPRLPRPRPRPKGMPRP,0.218
16,RRIRHRPPRLPRPRPRPTQLPRP,0.278
17,RRIRRRPPRLPRPRPRPDHFPRP,0.0408
18,RRIRHRPPRLPRPRPRPVVPPRP,-0.0888
19,RRIRCRPPRLPRPRPRPKSEPRP,-0.0877
20,RRIRRRPPRLPRPRPRPTKNPRP,0.395
21,RRIRKRPPRLPRPRPRPCMPPRP,0.0752
22,RRIRLRPPRLPRPRPRPGETPRP,-0.0544
23,RRIRARPPRLPRPRPRPWLFPRP,0.547
24,RRIRGRPPRLPRPRPRPMCFPRP,0.716
25,RRIRWRPPRLPRPRPRPFCPPRP,-0.318

row,Sequence,shrunken log2 fold change
1,RRIRDRPPRLPRPRPRPYCCPRP,-0.151
2,RRIRTRPPRLPRPRPRPHMYPRP,-0.275
3,RRIRKRPPRLPRPRPRPFRLPRP,0.0113
4,RRIRTRPPRLPRPRPRPQAVPRP,-0.111
5,RRIRGRPPRLPRPRPRPWNDPRP,-0.222
6,RRIRVRPPRLPRPRPRPGDHPRP,-0.0257
7,RRIRDRPPRLPRPRPRPPAVPRP,0.312
8,RRIRGRPPRLPRPRPRPTSAPRP,0.855
9,RRIRLRPPRLPRPRPRPDAHPRP,0.133
10,RRIRVRPPRLPRPRPRPEPEPRP,0.515
11,RRIRKRPPRLPRPRPRPGGRPRP,1.91
12,RRIRDRPPRLPRPRPRPLGWPRP,0.366
13,RRIRNRPPRLPRPRPRPIYRPRP,-0.356
14,RRIRIRPPRLPRPRPRPFMCPRP,-0.103
15,RRIRKRPPRLPRPRPRPWRSPRP,-0.0167
16,RRIRQRPPRLPRPRPRPLISPRP,-0.173
17,RRIRPRPPRLPRPRPRPYGGPRP,-0.153
18,RRIRFRPPRLPRPRPRPKTMPRP,-0.197
19,RRIRARPPRLPRPRPRPDALPRP,0.625
20,RRIRPRPPRLPRPRPRPGCLPRP,0.339
21,RRIRARPPRLPRPRPRPNETPRP,0.0696
22,RRIRDRPPRLPRPRPRPASLPRP,0.416
23,RRIRCRPPRLPRPRPRPMYDPRP,-0.0891
24,RRIRGRPPRLPRPRPRPSASPRP,1.77
25,RRIRERPPRLPRPRPRPADAPRP,0.117

row,Sequence,shrunken log2 fold change
1,RRIRIRPPRLPRPRPRPNHWPRP,0.0534
2,RRIRIRPPRLPRPRPRPLSKPRP,-0.901
3,RRIRCRPPRLPRPRPRPNVYPRP,-0.53
4,RRIRVRPPRLPRPRPRPLYFPRP,-0.53
5,RRIRARPPRLPRPRPRPRHKPRP,0.316
6,RRIRERPPRLPRPRPRPHPFPRP,-0.235
7,RRIRARPPRLPRPRPRPHPTPRP,0.648
8,RRIRVRPPRLPRPRPRPHNSPRP,-0.23
9,RRIRKRPPRLPRPRPRPDNDPRP,-0.00188
10,RRIRMRPPRLPRPRPRPKPIPRP,0.32
11,RRIRDRPPRLPRPRPRPWPFPRP,0.0405
12,RRIRQRPPRLPRPRPRPWNNPRP,0.079
13,RRIRHRPPRLPRPRPRPNYDPRP,-0.471
14,RRIRWRPPRLPRPRPRPNPSPRP,0.219
15,RRIRIRPPRLPRPRPRPWNWPRP,0.0631
16,RRIRPRPPRLPRPRPRPSRDPRP,-0.109
17,RRIRLRPPRLPRPRPRPLPGPRP,0.781
18,RRIRTRPPRLPRPRPRPVMFPRP,0.32
19,RRIRWRPPRLPRPRPRPAPCPRP,0.322
20,RRIRGRPPRLPRPRPRPHGTPRP,0.331
21,RRIRPRPPRLPRPRPRPLQTPRP,0.0208
22,RRIRVRPPRLPRPRPRPYEWPRP,-0.303
23,RRIRTRPPRLPRPRPRPQTWPRP,-0.18
24,RRIRLRPPRLPRPRPRPMLEPRP,0.0968
25,RRIRSRPPRLPRPRPRPPAKPRP,1.05

row,Sequence,shrunken log2 fold change
1,RRIRGRPPRLPRPRPRPVMFPRP,0.451
2,RRIRCRPPRLPRPRPRPGMCPRP,0.125
3,RRIRYRPPRLPRPRPRPTYMPRP,-1
4,RRIRMRPPRLPRPRPRPVAPPRP,0.945
5,RRIRSRPPRLPRPRPRPHYHPRP,-0.696
6,RRIRKRPPRLPRPRPRPCSWPRP,0.123
7,RRIRGRPPRLPRPRPRPARSPRP,0.686
8,RRIRPRPPRLPRPRPRPLEQPRP,0.169
9,RRIRLRPPRLPRPRPRPERHPRP,0.27
10,RRIRERPPRLPRPRPRPQFQPRP,-0.0426
11,RRIRFRPPRLPRPRPRPIERPRP,0.116
12,RRIRPRPPRLPRPRPRPAQHPRP,0.223
13,RRIRCRPPRLPRPRPRPYHNPRP,-1.12
14,RRIRVRPPRLPRPRPRPGAIPRP,0.0707
15,RRIRRRPPRLPRPRPRPPCSPRP,0.112
16,RRIRNRPPRLPRPRPRPGEYPRP,0.0536
17,RRIRVRPPRLPRPRPRPPHDPRP,0.65
18,RRIRMRPPRLPRPRPRPYIQPRP,-1.05
19,RRIRARPPRLPRPRPRPVDRPRP,0.193
20,RRIRRRPPRLPRPRPRPNMVPRP,-0.0449
21,RRIRKRPPRLPRPRPRPIDNPRP,0.0107
22,RRIRMRPPRLPRPRPRPCFCPRP,0.0295
23,RRIRTRPPRLPRPRPRPSVTPRP,-0.0217
24,RRIRMRPPRLPRPRPRPMRYPRP,-0.0558
25,RRIRMRPPRLPRPRPRPSITPRP,-0.0273

row,Sequence,shrunken log2 fold change
1,RRIRERPPRLPRPRPRPQNCPRP,-0.0646
2,RRIRWRPPRLPRPRPRPVIQPRP,-0.2
3,RRIRSRPPRLPRPRPRPSCNPRP,-0.377
4,RRIRPRPPRLPRPRPRPWIDPRP,-0.35
5,RRIRFRPPRLPRPRPRPPTWPRP,0.239
6,RRIRGRPPRLPRPRPRPYSCPRP,0.131
7,RRIRARPPRLPRPRPRPESKPRP,0.015
8,RRIRIRPPRLPRPRPRPRNRPRP,-0.125
9,RRIRCRPPRLPRPRPRPNREPRP,-0.134
10,RRIRKRPPRLPRPRPRPTVTPRP,0.229
11,RRIRYRPPRLPRPRPRPEFNPRP,-0.221
12,RRIRQRPPRLPRPRPRPQGCPRP,-0.0562
13,RRIRQRPPRLPRPRPRPWVIPRP,-0.134
14,RRIRERPPRLPRPRPRPCQSPRP,-0.127
15,RRIRFRPPRLPRPRPRPVNLPRP,0.025
16,RRIRIRPPRLPRPRPRPKQPPRP,0.102
17,RRIRLRPPRLPRPRPRPHPEPRP,0.0233
18,RRIRTRPPRLPRPRPRPWVGPRP,-0.155
19,RRIRRRPPRLPRPRPRPYFVPRP,-0.381
20,RRIRDRPPRLPRPRPRPKDLPRP,-0.0191
21,RRIRTRPPRLPRPRPRPYCEPRP,-0.416
22,RRIRSRPPRLPRPRPRPNCEPRP,-0.133
23,RRIRIRPPRLPRPRPRPMASPRP,-0.00783
24,RRIRYRPPRLPRPRPRPDHSPRP,-0.889
25,RRIRQRPPRLPRPRPRPPTLPRP,-4.2e-05

row,Sequence,shrunken log2 fold change
1,RRIRRRPPRLPRPRPRPHHNPRP,-0.393
2,RRIRDRPPRLPRPRPRPSHDPRP,-0.339
3,RRIRARPPRLPRPRPRPLPKPRP,0.748
4,RRIRFRPPRLPRPRPRPMTVPRP,-0.463
5,RRIRCRPPRLPRPRPRPLHLPRP,-0.302
6,RRIRDRPPRLPRPRPRPPRAPRP,1.1
7,RRIRNRPPRLPRPRPRPHHYPRP,-0.619
8,RRIRKRPPRLPRPRPRPGADPRP,0.709
9,RRIRNRPPRLPRPRPRPVSCPRP,-0.129
10,RRIRKRPPRLPRPRPRPRHMPRP,-0.0275
11,RRIRHRPPRLPRPRPRPCISPRP,-0.13
12,RRIRQRPPRLPRPRPRPGTFPRP,-0.499
13,RRIRGRPPRLPRPRPRPQYMPRP,-0.195
14,RRIRGRPPRLPRPRPRPKLTPRP,0.808
15,RRIRIRPPRLPRPRPRPTYNPRP,-0.783
16,RRIRSRPPRLPRPRPRPAQCPRP,0.0899
17,RRIRHRPPRLPRPRPRPFDHPRP,-0.0277
18,RRIRDRPPRLPRPRPRPKWDPRP,0.488
19,RRIRCRPPRLPRPRPRPQVVPRP,-0.266
20,RRIRNRPPRLPRPRPRPEPYPRP,0.0346
21,RRIRGRPPRLPRPRPRPMYAPRP,0.706
22,RRIRTRPPRLPRPRPRPMDMPRP,0.0382
23,RRIRMRPPRLPRPRPRPLDGPRP,0.844
24,RRIRSRPPRLPRPRPRPFQRPRP,0.101
25,RRIRFRPPRLPRPRPRPHKNPRP,-0.389
